This note sets out measurements from the Immune Epitope Database (IEDB).

Test [1] deals with HLA-A*02:01. Put plainly: IEDB peptide-MHC binding, purified MHC/direct/fluorescence; filed as Kd, often an IC50 or EC50 that approximates it; ≥ and ≤ were set here for values at or beyond the usual limits of such assays.
Test [2] concerns the target HLA-B*08:01. Described as above.
For test [3], the target named is HLA-A*26:01. Described as above.
In test [4] the target is HLA-A*69:01. Described as above.
Test [5] deals with HLA-A*11:01. The test is described as above.
Test [6] addresses HLA-B*58:01. Described as above.
Test [7] deals with HLA-A*01:01. The description is as above.
The target of test [8] is HLA-B*15:01. Described as above.
The target in test [9] is HLA-A*03:01. Described as above.
Test [10] concerns the target HLA-A*31:01. The description is as above.
Test [11] has as its target HLA-B*40:01. The description is as above.
Test [12] deals with HLA-B*07:02. The test is described as above.
The target in test [13] is HLA-A*24:03. Described as above.
Test [14] addresses HLA-B*44:02. Described as above.
Test [15] addresses HLA-B*27:05. Described as above.
In test [16] the target is HLA-A*02:01. The experiment in a line: IEDB peptide-MHC binding, purified MHC/competitive/fluorescence; filed as Kd, often an IC50 or EC50 that approximates it; ≥ and ≤ were set here for values at or beyond the usual limits of such assays. The note with it: source organism: Yersinia pestis Nepal516.
Test [17] has as its target HLA-B*15:01. Described as above.
The target in test [18] is HLA-B*39:01. The test is described as above. The settings on record: source organism: Yersinia pestis Nepal516.
Test [19] concerns the target HLA-B*51:01. Put plainly: IEDB peptide-MHC binding, purified MHC/competitive/radioactivity; filed as Kd, often an IC50 or EC50 that approximates it; ≥ and ≤ were set here for values at or beyond the usual limits of such assays.
Test [20] deals with HLA-B*54:01. The description is as above. The note with it: source organism: SARS coronavirus Tor2.
Test [21] has as its target HLA-B*07:02. The test is described as above. The note with it: source organism: SARS coronavirus Tor2.
The target of test [22] is HLA-B*53:01. The description is as above. The note with it: source organism: SARS coronavirus Tor2.
The target of test [23] is HLA-B*35:01. The test is described as above.
Test [24] deals with HLA-B*51:01. The experiment in a line: IEDB peptide-MHC binding, purified MHC/competitive/fluorescence; filed as Kd, often an IC50 or EC50 that approximates it; ≥ and ≤ were set here for values at or beyond the usual limits of such assays. The settings on record: source organism: Salmonella enterica subsp. enterica serovar Typhi.
Test [25] addresses HLA-B*57:01. Put plainly: IEDB peptide-MHC binding, purified MHC/direct/fluorescence; filed as Kd, often an IC50 or EC50 that approximates it; ≥ and ≤ were set here for values at or beyond the usual limits of such assays. The note with it: source organism: Mammarenavirus lassaense.
Test [26] addresses HLA-B*15:17. The description is as above. The note with it: source organism: Mammarenavirus lassaense.
Test [27] deals with HLA-A*26:01. Put plainly: IEDB peptide-MHC binding, purified MHC/competitive/radioactivity; filed as Kd, often an IC50 or EC50 that approximates it; ≥ and ≤ were set here for values at or beyond the usual limits of such assays. The note with it: source organism: Dengue virus 1 Brazil/97-11/1997.
In test [28] the target is HLA-A*30:02. The description is as above. The note with it: source organism: Dengue virus 1 Brazil/97-11/1997.
Test [29] deals with HLA-A*01:01. The test is described as above. The note with it: source organism: Dengue virus 1 Brazil/97-11/1997.
Test [30] concerns the target HLA-B*15:01. The description is as above. The note with it: source organism: Dengue virus 1 Brazil/97-11/1997.
Test [31] deals with HLA-A*30:01. Described as above. The note with it: source organism: Dengue virus 1 Brazil/97-11/1997.
Test [32] has as its target HLA-B*44:03. Described as above.
The target in test [33] is HLA-B*40:01. Described as above.
Test [34] has as its target HLA-B*45:01. Described as above.
For test [35], the target named is HLA-B*18:01. The test is described as above.
For test [36], the target named is HLA-B*40:02. The test is described as above.
For test [37], the target named is HLA-B*44:02. Described as above.
The mark [38] stands for this setting: source organism: Vibrio vulnificus.
The mark [39] stands for this setting: source organism: SARS coronavirus Tor2.
Where [40] appears, read: source organism: Dengue virus 3 Martinique/1243/1999.
Where [41] appears, read: source organism: Corynebacterium glutamicum.
The mark [42] stands for this setting: source organism: Salmonella enterica.
Where [43] appears, read: source organism: Salmonella enterica subsp. enterica serovar Typhi.
Where [44] appears, read: source organism: Mammarenavirus lassaense.
The mark [45] stands for this setting: source organism: Mammarenavirus choriomeningitidis.

Turning to STDTRHIPQ, the Kd in [1] (setting [38]), in test [2] (setting [38]), in test [3] (setting [38]), in [4] (setting [38]), in test [5] (setting [38]) and in test [6] (setting [38]) was at least 20 µM in each case. Further, the equilibrium dissociation constant (Kd) (in general, the constant that tells how readily two partners part at equilibrium) in test [7] (setting [38]) was 4.41 µM; in test [8] (setting [38]), at least 20 µM; in test [9] (setting [38]), at least 20 µM; in test [10] (setting [38]) it was at least 20 µM; in test [11] (setting [38]), at least 20 µM; in test [12] (setting [38]), at least 20 µM. The Kd in [13] (setting [38]), in [14] (setting [38]) and in test [15] (setting [38]) was at least 20 µM throughout.

TVQKDGMYF displayed a Kd in test [13] (source organism: Giardia lamblia ATCC 50803) of 0.46 µM.

Turning to AQRELFFTL, the Kd stood at 1.3 µM in [16], 0.113 µM in test [17] (source organism: Yersinia pestis Nepal516) and 0.332 µM in [18].

Regarding MPNMLRIMA, the Kd in test [19] (setting [39]) is 0.393 µM; in test [20], 0.000256 µM; in test [21], 0.0098 µM; in [22], 0.027 µM; in test [23] (setting [39]), 0.0117 µM.

In the case of MPVTAASAAQ, the figures for the Kd in test [19] (setting [40]) and in test [23] (setting [40]) were at least 20.5 µM and 1.59 µM, respectively.

In test [24], NPLWPFETV had a Kd of 0.229 µM.

For VLPVPGASV, the Kd in test [1] (setting [41]) is 0.0637 µM; in test [2] (setting [41]) it was at least 20 µM; in test [3] (setting [41]), at least 20 µM; in [4] (setting [41]), at least 20 µM; in test [5] (setting [41]), at least 20 µM; in test [6] (setting [41]), at least 20 µM. The Kd was at least 20 µM in test [7] (setting [41]); 3.81 µM in test [8] (setting [41]); at least 20 µM in test [9] (setting [41]); at least 20 µM in test [10] (setting [41]); at least 20 µM in test [11] (setting [41]); 10.3 µM in [12] (setting [41]). The Kd in [13] (setting [41]) and in test [15] (setting [41]) was at least 20 µM each time.

In the case of QTDDGVRFT, the Kd in [1] (setting [42]) was at least 20 µM; in [2] (setting [42]) it was at least 20 µM; in test [3] (setting [42]) it was at least 20 µM; in [4] (setting [43]) it was 0.0703 µM; in [5] (setting [42]), at least 20 µM; in test [6] (setting [42]), at least 20 µM. Also, the Kd in [7] (setting [43]) was 19.8 µM; in test [8] (setting [42]), at least 20 µM; in [9] (setting [42]), at least 20 µM; in test [10] (setting [42]), at least 20 µM; in [11] (setting [42]), at least 20 µM; in [12] (setting [42]), at least 20 µM. For the same sequence, the Kd in test [13] (setting [42]), in test [14] (setting [42]) and in test [15] (setting [42]) was at least 20 µM each time.

With KSFLWTQSL, the values for the dissociation constant (Kd) in [25], in [6] (setting [44]) and in test [26] were 0.029 µM, 0.042 µM and at most 0.001 µM, respectively.

Take FTMAHRKPTY: the Kd amounted to 0.476 µM in test [27]; 0.744 µM in test [28]; 9.16 µM in [29]; 0.313 µM in [30]; 2.27 µM in test [31]; 0.698 µM in test [23] (source organism: Dengue virus 1 Brazil/97-11/1997).

With RIYHEFLSL, the Kd in [17] (source organism: Yersinia pestis Angola) was 0.0975 µM.

For IETALRTLI, the Kd in [32] (setting [45]) was 2.2 µM; in test [33] (setting [45]) it was 1.86 µM; in test [34] (setting [45]), at least 54 µM; in [35] (setting [45]), 3.45 µM; in [36] (setting [45]), 0.154 µM; in test [37] (setting [45]), 2.78 µM.

Regarding AEMDGIQYG, the Kd in [32] (setting [39]) was 0.0138 µM; in [33] (setting [39]), 2.02 µM; in test [34] (setting [39]) it was 0.0476 µM; in test [35] (setting [39]) it was at least 77.5 µM; in test [36] (setting [39]), 1.31 µM; in test [37] (setting [39]), 0.0114 µM.

With SELVIGAVII, the Kd was 0.827 µM in test [32] (setting [39]); 0.684 µM in [33] (setting [39]); 1.9 µM in test [34] (setting [39]); at least 47.2 µM in [35] (setting [39]); 1.18 µM in test [36] (setting [39]); 1.69 µM in [37] (setting [39]).

For the sequence EELITDTEFL, the Kd in test [32] (setting [44]) was 9.1 µM; in test [33] (setting [44]), 12.7 µM; in test [34] (setting [44]) it was 12.4 µM; in [35] (setting [44]) it was 10.9 µM; in test [36] (setting [44]) it was at least 24.1 µM; in test [37] (setting [44]), 4.74 µM.
